Data on eleven molecules can be found in patent US7763426B2, “Probes and methods for detection of Escheridia coli and antibiotic resistance” (priority 2004, dated 2010).

Entries after “also recorded” stand apart in the source; their conditions may differ. {Fluorescein} = fluorescein label (binding site for anti-fluorescein Fab-HRP); {Biotin} = biotin (capture probe anchor)

For data set [1], the system named is bacterial 16S rRNA. Put plainly: Sensor validation using control ATCC bacterial strains, UTI Chip with 7-detector-probe mixture (Example 3). In kind it is binding. The source says:
The following American Type Culture Collection (ATCC) strains were obtained from the UCLA Clinical Microbiology Laboratory: Escherichia coli strain 35218, Klebsiella pneumoniae strain 13883, K. oxytoca strain 49131, Enterobacter aerogenes strain 13048. E. cloacae strain 13047, Proteus mirabilis strain 12453, Pseudomonas aeruginosa strain 10145, Citrobacter freundii strain 8090, and Enterococcus faecalis strain 49532. Additional strains of uropathogenic bacteria were obtained from the UCLA Uropathogen Specimen Bank: E. coli strain Ec103, K. pneumoniae strain Kp295, P. mirabilis strain Pm278, P. aeruginosa strain Pa3, and E. faecalis strain Eo111. Isolation of uropathogens from clinical urine specimens was approved by the UCLA and VA Greater Los Angeles Healthcare System institutional Review Boards. The identity of all clinical strains was determined by standard biochemical assays and verified by 16S rRNA gene sequencing. The 16S rRNA genes were PCR amplified with universal primers 8UA and 1485B.^17 The amplified product was purified by using the QIAquick PCR purification kit (QIAGEN, Inc., Chatsworth, Calif.) and directly sequenced using primer pairs 8UA/907B and 774A/1485B as described previously.^18 DNA sequencing was performed at the W. M. Keck Foundation Biotechnology Resource Laboratory (New Haven, Conn.). Isolates were inoculated into Brucella broth with 15% glycerol (BBL, Maryland) and were stored at −70° C. Bacteria were grown overnight in Luria Broth (LB), inoculated into LB and grown to logarithmic phase as measured by OD600. Concentration of the logarithmic phase specimens was determined by serial plating, typically yielding 10^7-10^8 bacteria/ml.
Logarithmic phase bacterial cells were concentrated by centrifugation at 10.000 rpm for 5 min, Lysis of bacterial cells was performed by addition of 10 μl of one or more of the following […]. 0.1% Triton X-100 in 20 mM Tris-HCl, pH 8.0, 2 mM EDTA and 1 mg/ml lysozyme (Sigma). After incubation at room temperature, 50 μl of the detector probe (0.25 μM) in 2.5% bovine serum albumin (Sigma)—1 M phosphate buffer, pH 7.4, was added to the bacterial lysate. The detector probe/bacterial lysate mixture was incubated for 10 min at 65° C. to allow hybridization of the detector probe to target rRNA. 4 μl of the bacterial lysate/detector probe mixture was deposited on each of the working electrodes in the sensor array. The sensor array was incubated for 10 min at 65° C. in a humidified chamber. After washing and drying, 4 μl of 0.5 U/mil anti-fluorescein horseradish peroxidase (HRP) Fab conjugate (Roche, diluted in 0.5% casein in 1 M sodium phosphate buffer, pH 7.4) were deposited on each of the working electrodes for 10-15 min. After washing and drying, a prefabricated plastic well manifold (GeneFluidics) was bonded to the sensor array. 50 μl of HRP substrate solution (K-Blue Aqueous TMB, Neogen, Lexington, Ky.) was placed on each of the sensors in the array so as to cover all three of the electrodes. Measurements were immediately and simultaneously taken for all 16 sensors. The entire assay protocol was completed within 45 min from the initiation of bacterial lysis. Amperometric current vs. time was measured using a multichannel potentiostat (GeneFluidics). The voltage was fixed at −200 mV (vs. reference), and the electroreduction current was measured at 60 sec after the HRP redox reaction reached steady state. Negative controls were included in each experiment in which 1 M phosphate buffer, pH 7.4, was used as the target instead of bacterial lysate. All samples were analyzed in duplicate.
Experiments were performed on ATCC strains to verify probe specificity using a 16-sensor array “UTI chip” in which the UNI782C, EB1176C, EC434C, KE434C, PM187C, PA102C, and EF207C 5′-biotinylated capture probes (defined in Table 1) were tested in duplicate. The two remaining sensors in the array served as negative controls (using capture probe UNI782C without bacterial lysate). […]

Data set [2] relates to bacterial 16S rRNA. Put plainly: Species specificity of short probe pairs, 16 sensor array at ambient temperature (Example 5). In kind it is binding.
The next data set concerns E. coli 16S rRNA. Put plainly: Amperometric detection of E. coli 16S rRNA with short probes at ambient temperature (Example 5). In kind it is binding, Escherichia coli. To be noted: for sensitivity (threshold): fivefold dilutions of E. coli cells.
For data set [3], the system named is bacterial 16S rRNA. Put plainly: Clinical validity study: UTI Chip on blinded clinical urine specimens. In kind it is binding. The method, then:
Amperometric detection of bacterial 16S rRNA. An overview of the electrochemical sensor detection strategy is presented in panel C of FIG. 1. One ml of bacteria in Luria broth, inoculated clean urine, or clinical urine samples was centrifuged at 10,000×g for 5 min. The supernatant was discarded and the bacteria were lysed by resuspension of the pellet in 10 μl of 1 M NaOH and incubation at room temperature for 5 min. In some experiments, addition of 1M NaOH was preceded by resuspension of the bacterial pellet in 10 μl of 0.1% Triton X-100, 2 mM EDTA, and 1 mg/ml lysozyme (Sigma) in 20 mM Tris-HCl, pH 8.0, and incubation at room temperature for 5 min. 50 μl of the detector probe (0.25 μM) in 2.5% bovine serum albumin (Sigma, St. Louis, Mo.) 1 M phosphate buffer, pH 7.4, were added to the bacterial lysate and incubated for 10 min at 65° C. to allow target-probe hybridization. 4 μl of the bacterial lysate/detector probe mixture was deposited on each of the working electrodes in the sensor array and incubated for 15 min at 65° C. in a humidified chamber. After washing and drying, 4 μl of 0.5 U/ml anti-fluorescein horseradish peroxidase (HRP) Fab fragments (Roche, diluted in 0.5% casein in 10 mM phosphate buffered saline, pH 7.4) were deposited on each of the working electrodes for 15 min. After washing and drying, a prefabricated plastic well manifold (GeneFluidics, Monterey Park, Calif.) was bonded to the sensor array. The sensor array was put into the chip reader (FIG. 18) and 50 μl of 3,3′,5,5′-tetramethylbenzidine (TMB), H2O2 solution (K-Blue Low Activity TMB Substrate, Neogen, Lexington, Ky.) was placed on each of the sensors in the array so as to cover all three electrodes of each sensor. Electrochemical measurements are immediately and simultaneously taken for all 16 sensors. For each array, negative control (NC) sensors were tested including the UNI capture probe, detector probe, and 2.5% bovine serum albumin (Sigma, St, Louis, Mo.) in 1 M phosphate buffer, pH 7.4, instead of bacterial lysate. The entire assay protocol was completed within 45 min from the time when bacterial lysis was commenced. Amperometric current vs. time was measured using a multichannel potentiostat (GeneFluidics). The voltage was fixed at −200 mV (vs. reference), and the electroreduction current was measured at 60 s after the HRP redox reaction reached steady state.
Clinical validity study design. Clinical urine specimens were received from routine urine cultures collected from inpatients and outpatients and submitted to the UCLA Clinical Microbiology Laboratory. Routine plating on tripticase soy agar with 5% sheep blood was performed on each specimen for phenotypic identification and colony counting while an aliquot of each specimen was held at 4° C. overnight. On the day after plating, specimens were selected for inclusion in the study on the basis of a rapid indole test for the purpose of including uropathogens other than Escherichia coli in approximately one-half of the specimens. The other half of the specimens were divided between E. coli-containing specimens and specimens determined to have ““no significant growth” or no growth” (see definitions below). Because most UTIs involve a single uropathogen, specimens determined by the clinical microbiology laboratory to have more than one organism present were excluded. Blinded specimens selected for inclusion in the study were stripped of patient identifiers and any microbiological data before delivery to the research laboratory for testing with the electrochemical sensor array.
Experiments were performed on all specimens using the 16-sensor array ‘UTI Chip’, in which the UNI, EB, EC, PM, KE, PA, and EF capture probes (defined in Tables 1 and 2) were tested in duplicate. The two remaining sensors served as negative controls (including capture and detector probes without bacterial lysate). […]

The test system of data set [4] is 16S rRNA in lysates of uropathogens. Put plainly: Species specificity of uropathogen probe pairs with the electrochemical sensor array (Example 1). In kind it is binding. To be noted: probe pairs of Table 1.
[5] abbreviates: specimens with Proteus mirabilis.
[6] abbreviates: No Significant Growth specimens.
The mark [7] stands for this setting: specimens with Enterococcus species.
The mark [8] stands for this setting: specimens with Escherichia coli.

Take “CATCGTTTACGGCGTGGACTACCAGGG (DNA CATCGTTTACGGCGTGGACTACCAGGG; chemistry not given here) [UNI782C]”: in the data set with bacterial 16S rRNA [1], the capture probe specificity entry is given as “detected all bacterial uropathogens tested”.
Same read-out and setting: in the case of “CCCACTTTCTCCCTCAGGACGTATGCGGTATTAGC (DNA CCCACTTTCTCCCTCAGGACGTATGCGGTATTAGC; chemistry not given here; listed as Pseudomonas aeruginosa) [PA111C]” it was “P. aeruginosa”; in that of “CGGACTACGACRYACTTTATGAGGTCCGCTTGCTC (DNA CGGACTACGACRYACTTTATGAGGTCCGCTTGCTC; chemistry not given here; listed as Enterobacter sp.) [EB1172C]”, “positive for all members of the family Enterobacteriaceae tested and negative for P. aeruginosa and E. faecalis”.
Take “EC439C (15 mer)/EC424D (15 mer): E. coli probe pair, SEQ ID NO: 44 and 45 (DNA 1 TATTAACTTTACTCC; DNA 2 CTTCCTCCCCGCTGA; chemistry not given here; listed as Escherichia coli)”: the “cross-reactivity with P. aeruginosa” value in the data set on bacterial 16S rRNA [2] (ambient temperature) was “Weak cross-reactivity”. In the data set on bacterial 16S rRNA [2] (ambient temperature hybridization), the Species detected entry is given as “Ec”. Further, in the data set on bacterial 16S rRNA [2] (ambient temperature, * cross-reactivity at a level significantly less than with the target species), the Species not detected entry is “Ea, Ef, Kp, Pa*, Pm”. Also, the mean current in the data set with E. coli 16S rRNA was 1605 negative nanoamperes. Besides, the “sensitivity (threshold)” value was “approximately 250 cells” in the data set on E. coli 16S rRNA (listed as 15mer capture and detector probes); “approximately 173 cells” in the data set with E. coli 16S rRNA (listed as E. coli-specific 15mer probe pairs).
“GGGTTCATCCGATAGTGCAAGGTCCGAAGAGCCCC (DNA GGGTTCATCCGATAGTGCAAGGTCCGAAGAGCCCC; chemistry not given here; listed as Proteus mirabilis) [PM188C]”: the capture probe specificity result with bacterial 16S rRNA [1] is recorded as “specific for P. mirabilis”.
For “GTCAATCGNCRAGGTTATTAACCTYAHCGCCTTCC (DNA GTCAATCGMCRAGGTTATTAACCTYAHCGCCTTCC; chemistry not given here; listed as Klebsiella pneumoniae) [KE434C]”, in the data set on bacterial 16S rRNA [1], the capture probe specificity result was “positive for all Enterobacteriaceae except E. coli”.
On the same count and under the same terms, the result for “GTCAATGAGCAAAGGTATTAACTTTACTCCCTTCC (DNA GTCAATGAGCAAAGGTATTAACTTTACTCCCTTCC; chemistry not given here; listed as Escherichia coli) [EC434C]” reads “positive for E. coli”; that for “TTGGTGAGCCGTTACCTCACCAACTAGCTAATGCA (DNA TTGGTGAGCCGTTACCTCACCAACTAGCTAATGCA; chemistry not given here; listed as Enterococcus sp.) [EF207C]”, “E. faecalis”.

B1: PM: Proteus mirabilis probe pair: capture 202 (35 mer) SEQ ID NO: 3, detector 162 (35 mer) SEQ ID NO: 4 (nucleic acid, listed as Proteus mirabilis)
DNA 1: GGGTTCATCCGATAGTGCAAGGTCCGAAGAGCCCC
DNA 2: GGTCCGTAGACATTATGCGGTATTAGCCACCGTTT
modifications: DNA 1: 5' {Biotin}, sugars by position and backbone not given here; DNA 2: 5' {Fluorescein}, sugars by position and backbone not given here
For the molecule B1, in the data set on bacterial 16S rRNA [3] (setting [5]), the “Mean (range)” value was 0.74 (0.48-0.96) log10 units over background and the “Positive/Total = Percent” value is reported as “Pm 3/3 = 100%”. Moreover, in data set [4], the Species detected entry is recorded as “Pm” and the Species not detected result is “Cf, Ea, Ec, El, Eo, Ko, Kp, Pa”.

B2: EF: Enterococcus spp probe pair: capture SEQ ID NO: 9, detector SEQ ID NO: 10 (nucleic acid, listed as Enterococcus sp.)
DNA 1: TTGGTGAGCCGTTACCTCACCAACTAGCTAATGCA
DNA 2: GTCCATCCATCAGCGACACCCGAAAGCGCCTTTCA
modifications: DNA 1: 5' {Biotin}, sugars by position and backbone not given here; DNA 2: 5' {Fluorescein}, sugars by position and backbone not given here
On to B2, for which, in the data set on bacterial 16S rRNA [3] (setting [6]), the “Mean (range)” value is listed as 0.31 log10 units over background and the “Positive/Total = Percent” value is “Ef 1/8 = 13%”. In the data set on bacterial 16S rRNA [3] (setting [7]), the “Mean (range)” value is recorded as 0.99 (0.63-1.36) log10 units over background and the “Positive/Total = Percent” value is “Ef 2/8 = 25%”. Also, in data set [4], the Species detected entry is reported as “Ef, Eo” and the Species not detected result was “Ec, Kp, Pa, Pm, Sa”.

B3: EC: Escherichia coli probe pair: capture 449 (35 mer) SEQ ID NO: 1, detector 408 (35 mer) SEQ ID NO: 2 (nucleic acid, listed as Escherichia coli)
DNA 1: GTCAATGAGCAAAGGTATTAACTTTACTCCCTTCC
DNA 2: CTGAAAGTACTTTACAACCCGAAGGCCTTCTTCAT
modifications: DNA 1: 5' {Biotin}, sugars by position and backbone not given here; DNA 2: 5' {Fluorescein}, sugars by position and backbone not given here
Regarding B3, in the data set with bacterial 16S rRNA [3] (setting [8]), the “Mean (range)” value is 1.06 (0.48-1.59) log10 units over background and the “Positive/Total = Percent” value is reported as “Ec 26/26 = 100%”. For the same molecule, in data set [4], the Species detected result is reported as “Ec” and the Species not detected result is listed as “Cf, Ea, El Eo, Ko, Kp,; also recorded: Pa, Pm”.
